B1: library; numbered along this chain (parent)
chain: MRKPRAAVGSGHRKQAASQEGRQKHAKNNSQAKPSACDGLARQPEEVVLQASVSSYHLFRDVAEVTAFRGSLLSWYDQEKRDLPWRRRAEDEMDLDRRAYAVWVSEVMLQQTQVATVINYYTGWMQKWPTLQDLASASLEEVNQLWAGLGYYSRGRRLQEGARKVVEELGGHMPRTAETLQQLLPGVGRYTAGAIASIAFGQATGVVDGNVARVLCRVRAIGADPSSTLVSQQLWGLAQQLVDPARPGDFNQAAMELGATVCTPQRPLCSQCPVESLCRARQRVEQEQLLASGSLSGSPDVEECAPNTGQCHLCLPPSEPWDQTLGVVNFPRKASRKPPREESSATCVLEQPGALGAQILLVQRPNSGLLAGLWEFPSVTWEPSEQLQRKALLQELQRWAGPLPATHLRHLGEVVHTFSHIKLTYQVYGLALEGQTPVTTVPPGARWLTQEEFHTAAVSTAMKKVFRVYQGQQPGTCMGSKRSQVSSPCSRKKPRMGQQVLDNFFRSHISTDAHSLNSAAQ

Variants of: B1
Assay: 8OG:A repair function score (normalized; synonymous = 0, nonsense = -1) (normalized log-likelihood score); higher = more repair activity (WT-like)
Conditions: with 8OG:A DNA repair reporter (GFP) in HEK-293 MUTYH KO cells
In short: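 MUTYH knockout HEK-293 cells carrying lentiviral MUTYH cDNA NNN codon-scan libraries were grown with 10 pg/ml doxycycline and co-transfected with mCherry and a GFP reporter of 8OG:A repair. Viable mCherry+ cells were sorted at 72 h into GFP+ (repair) and GFP− bins, with three replicates per tile, and tile amplicons were sequenced. Rosace fitness scores for each tile were turned into a normalized repair function score anchored on the synonymous and nonsense distributions. Synonymous medians were set to 0 and nonsense medians to -1, and variants below 300 counts per million at the start were dropped.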

8OG:A repair function score, by site and new letter:
F505: A 0.00138, Y 0.00392, K -0.0487, R 0.016, C 0.0238, S 0.0199, D 0.0229, N 0.0264, M -0.0487, L 0.0157, Q 0.0246, H -0.0303, V 0.00446, I 0.0133, W 0.00244, P 0.0167, G 0.00871, T 0.0174
I509: W -0.00561, N 0.0286, P 0.0272, C -0.00892, G -0.00592, A 0.0157, L 0.00266, T 0.026, S 0.0252, D -0.00523, Y -0.0704, F -0.0535, K -0.00442, R -0.0323, Q 0.0194, E 0.0145, M -0.0347, H 0.0112, V 0.0164
A513: Q 0.0184, T 0.000215, E -0.0288, D 0.0137, L -0.00457, V -0.0254, S 0.00165, H -0.0076, I 0.00892, K 0.0278, F -0.00203, P -0.0105, R 0.00911, Y -0.00892, W -0.0476, C -0.00572, M -0.0173, G 0.0049, N 0.0128
V500: C -0.0118, A 0.00946, Q 0.00719, M 0.0185, R 0.00797, G 0.00844, S 0.00727, Y -0.00833, T 0.02, W -0.015, D -0.00453, I 0.0202, N -0.0108, F -0.0131, L 0.00153, H 0.0251, K -0.0181, E 0.0219, P -0.0532
D512: V 0.00239, W -0.023, Q -0.02, I -0.0146, G -0.00398, A -0.0123, R -7.7e-05, C 0.0193, H -0.0208, E -0.0165, T -0.0649, F -0.0699, S -0.0201, N -0.0198, Y -0.0038, K -0.0591, M -0.033, L -0.0115, P -0.0253
G497: M -0.0577, S -0.0201, F -0.0315, P -0.0806, T -0.00191, R -0.0166, E 0.00606, I -0.0179, H -0.0394, L -0.0147, K 0.0129, N 0.0269, V -0.00253, W 0.0164, D -0.0474, Y -0.0861
L501: D 0.00991, M 0.0114, Q 0.02, E 0.0149, C -0.00326, P 0.0273, F 0.0198, R 0.00197, T -0.0124, A 0.00122, I -0.0198, S 0.0215, K -0.0877, H 0.0143, Y -0.0132, G 0.00711, V 0.00157, W -0.00606, N -0.0105
H514: P -0.00868, I -0.00558, S -0.0171, V 0.0053, M -0.00625, G 0.0114, D -0.0358, E -0.0112, R -0.0107, T -0.02, C -0.00794, K 0.0132, A -0.021, L -0.0137, N 0.00779, Q 0.00808, F -0.0319
D502: F -0.0425, N 0.011, I -0.0355, M -0.0464, G -0.00456, S -0.0153, Q -0.0749, Y -0.0488, L -0.0337, T 0.00564, W -0.0396, K -0.00432, R 0.0187, A -0.0186, E -0.0204, C -0.00279, P -0.0101, H -0.0311, V -0.0389
S507: R -0.00355, P 0.0118, I -0.0448, Y -0.141, H -0.084, A -0.0386, W -0.0429, C -0.0153, G -0.00119, M -0.0199, T 0.0162, E 0.000264, K -0.0064, F -0.0917, L -0.0301, N -0.0395, D -0.0424, Q -0.0688, V -0.000918
H508: Y 0.0034, I -0.0148, G -0.00256, P 0.00413, W 0.018, A -0.00475, E 0.0183, T 0.0103, M -0.0245, K -0.0603, D -0.000798, R -0.0128, N -0.00695, S -0.00585, Q 0.000578, L -0.0429, C -0.0231, F -0.00232, V -0.0097
S510: M -0.0272, N -0.0738, G -0.0202, Y -0.0344, E -0.0364, P 0.0141, Q -0.053, R 0.00127, C -0.0307, T 0.00117, K -0.00453, I -0.0731, V -0.00843, A -0.00841, F -0.00526, L 0.0205, D -0.0311, W -0.046, H 0.0212
N503: Q 0.0112, K -0.0135, G 0.00621, I -0.0307, E 0.0211, S -0.019, M -9.05e-05, Y -0.0151, H -0.0815, T 0.00666, F 0.0039, W -0.011, L 0.00339, P -0.000934, C 0.00549, V -0.0118, R -0.0109, A 0.0125, D -0.0599
F504: Y 0.0257, N 0.023, E 0.0256, A 0.00928, P -0.0247, L 0.0067, S 0.0238, C -0.00333, T 0.0122, K -0.0046, D 0.0276, Q -0.00826, V -0.00446, M 0.0285, I 0.00771, R -0.00117, H 0.0204, G -0.0353, W -0.0289
Q499: V 0.0113, S 0.00646, P 0.0119, M 0.00183, W -0.0171, L 0.00129, K -0.00715, D -0.0217, T -0.00713, F -0.00963, R -0.0243, I 0.0124, E 0.0257, C 0.00111, A -0.02, Y -0.045, N -0.0201, H 0.0243, G -0.0117
T511: N -0.0682, D -0.0938, P -0.0422, Y 0.0102, V -0.00751, F -0.00618, G 0.00111, Q 0.0207, H 0.0209, A -0.038, K -0.00393, M -0.0046, L -0.0126, C -0.014, R 0.00505, W -0.0217, S -0.0121, I -0.0251, E -0.0321
R506: L 0.00814, V -0.0196, K 0.0152, T 0.0259, D 0.0134, S 0.00235, G -0.0057, F -0.0582, E 0.0109, A -0.0637, I 0.0189, C 0.0164, W -0.0815, P 0.0202, N 0.00916, Q -0.052, Y 0.0145
Q498: S 0.0168, K -0.00149, F -0.0629, A 0.011, L -0.00389, C -0.0114, N -0.0368, E 0.0145, T 0.0263, P -0.0275, D 0.00936, I 0.0195, W 0.0137, Y 0.0174, R 0.0169, H -0.0117, M -0.0277, G 0.0187, V 0.00262
